PMC7322189 (iScience, 2020)

Key:
[1] = biological target: GST-Exo70p (yeast Exo70) (yeast, UniProt P19658 1-623); assay: pull-down
[2] = biological target: GST-hExo70 (human Exo70) (human, UniProt Q9UPT5 1-735); assay: pull-down
Chain of GST-hExo70 (human Exo70) (Q9UPT5 whole entry): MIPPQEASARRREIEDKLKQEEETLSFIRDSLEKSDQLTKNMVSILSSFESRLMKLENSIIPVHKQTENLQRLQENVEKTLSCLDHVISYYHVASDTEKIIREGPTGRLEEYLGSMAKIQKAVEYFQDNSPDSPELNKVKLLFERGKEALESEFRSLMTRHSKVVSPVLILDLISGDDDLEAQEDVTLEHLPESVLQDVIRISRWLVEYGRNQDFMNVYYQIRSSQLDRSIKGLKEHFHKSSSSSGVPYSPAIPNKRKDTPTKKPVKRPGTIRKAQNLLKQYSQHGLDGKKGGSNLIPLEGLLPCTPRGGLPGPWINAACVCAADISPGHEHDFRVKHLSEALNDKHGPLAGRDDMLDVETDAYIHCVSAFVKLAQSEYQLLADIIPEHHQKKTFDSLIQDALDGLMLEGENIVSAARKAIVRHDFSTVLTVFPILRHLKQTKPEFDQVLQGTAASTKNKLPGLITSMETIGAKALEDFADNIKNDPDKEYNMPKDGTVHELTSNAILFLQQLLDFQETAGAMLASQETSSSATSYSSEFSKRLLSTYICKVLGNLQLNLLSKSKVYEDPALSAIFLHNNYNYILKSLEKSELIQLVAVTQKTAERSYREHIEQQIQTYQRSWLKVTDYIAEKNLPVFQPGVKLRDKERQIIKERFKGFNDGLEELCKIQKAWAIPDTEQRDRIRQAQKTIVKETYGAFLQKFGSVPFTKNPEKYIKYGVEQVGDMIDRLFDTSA

Chain of GST-Exo70p (yeast Exo70) (P19658 whole entry): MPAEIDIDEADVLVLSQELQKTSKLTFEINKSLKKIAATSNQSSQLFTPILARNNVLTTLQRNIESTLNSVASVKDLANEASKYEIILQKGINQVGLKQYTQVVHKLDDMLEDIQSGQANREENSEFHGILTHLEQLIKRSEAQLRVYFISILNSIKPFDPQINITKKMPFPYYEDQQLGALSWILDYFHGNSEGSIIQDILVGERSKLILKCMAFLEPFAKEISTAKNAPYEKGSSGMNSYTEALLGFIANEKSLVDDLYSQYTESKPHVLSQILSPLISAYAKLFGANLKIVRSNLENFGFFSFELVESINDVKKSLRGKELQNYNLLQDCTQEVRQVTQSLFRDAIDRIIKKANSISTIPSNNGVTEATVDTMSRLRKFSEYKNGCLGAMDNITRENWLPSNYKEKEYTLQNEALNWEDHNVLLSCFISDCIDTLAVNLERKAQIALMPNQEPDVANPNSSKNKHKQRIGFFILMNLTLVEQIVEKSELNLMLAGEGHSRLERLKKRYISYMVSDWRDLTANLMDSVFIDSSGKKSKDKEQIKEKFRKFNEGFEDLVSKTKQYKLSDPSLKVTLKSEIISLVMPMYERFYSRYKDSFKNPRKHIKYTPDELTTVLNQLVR

Binder	fold binding against human Exo70 [1]	fold binding against yeast Exo70p [2]
Recombinant His-Bem1p (natural protein, yeast, UniProt P29366 1-551, looked up) MLKNFKLSKRDSNGSKGRITSADISTPSHDNGSVIKHIKTVPVRYLSSSSTPVKSQRDSSPKNRHNSKDITSPEKVIKAKYSYQAQTSKELSFMEGEFFYVSGDEKDWYKASNPSTGKEGVVPKTYFEVFDRTKPSSVNGSNSSSRKVTNDSLNMGSLYAIVLYDFKAEKADELTTYVGENLFICAHHNCEWFIAKPIGRLGGPGLVPVGFVSIIDIATGYATGNDVIEDIKSVNLPTVQEWKSNIARYKASNISLGSVEQQQQQSITKPQNKSAKLVDGELLVKASVESFGLEDEKYWFLVCCELSNGKTRQLKRYYQDFYDLQVQLLDAFPAEAGKLRDAGGQWSKRIMPYIPGPVPYVTNSITKKRKEDLNIYVADLVNLPDYISRSEMVHSLFVVLNNGFDREFERDENQNNIKTLQENDTATFATASQTSNFASTNQDNTLTGEDLKLNKKLSDLSLSGSKQAPAQSTSGLKTTKIKFYYKDDIFALMLKGDTTYKELRSKIAPRIDTDNFKLQTKLFDGSGEEIKTDSQVSNIIQAKLKISVHDI	2 fold	
Recombinant His-GIV-CT (C terminus of GIV/Girdin), wild type (domain or fragment) SETLESRHHKIKTGSPGSEVVTLQQFLEESNKLTSVQIKSSSQENLLDEVMKSLSVSSDFLGKDKPVSCGLARSVSGKTPGDFYDRRTTKPEFLRPGPRKTEDTYFISSAGKPTPGTQGKIKLVKESSLSRQSKDSNPYATLPRASSVISTAEGTTRRTSIHDFLTKDSRLPISVDSPPAAADSNTTAASNVDKVQESRNSKSRSREQQSS		4 fold
